Ten molecules from patent US20200231684A1 (published 2020) can be followed below.

First the molecules themselves.
T1: human IL-36R on cells (human, UniProt Q9HB29 20-575)
T1 sequence (looked up): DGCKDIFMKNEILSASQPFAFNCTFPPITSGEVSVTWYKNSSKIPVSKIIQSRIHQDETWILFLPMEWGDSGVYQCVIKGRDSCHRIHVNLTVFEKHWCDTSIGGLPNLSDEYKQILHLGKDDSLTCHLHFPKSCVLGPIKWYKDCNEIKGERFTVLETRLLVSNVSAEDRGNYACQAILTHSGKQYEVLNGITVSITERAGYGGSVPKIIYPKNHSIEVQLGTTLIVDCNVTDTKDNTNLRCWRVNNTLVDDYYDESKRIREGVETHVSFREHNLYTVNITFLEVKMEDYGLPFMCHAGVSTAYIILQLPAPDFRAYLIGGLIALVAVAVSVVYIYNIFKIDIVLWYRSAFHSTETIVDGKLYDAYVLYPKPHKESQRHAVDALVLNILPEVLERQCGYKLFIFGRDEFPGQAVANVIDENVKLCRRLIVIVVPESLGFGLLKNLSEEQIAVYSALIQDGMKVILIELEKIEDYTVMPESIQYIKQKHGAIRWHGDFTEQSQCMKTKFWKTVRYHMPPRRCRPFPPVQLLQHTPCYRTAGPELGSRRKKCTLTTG

T2: mouse IL-36R (mouse, UniProt Q9ERS7 22-338)
T2 sequence (looked up): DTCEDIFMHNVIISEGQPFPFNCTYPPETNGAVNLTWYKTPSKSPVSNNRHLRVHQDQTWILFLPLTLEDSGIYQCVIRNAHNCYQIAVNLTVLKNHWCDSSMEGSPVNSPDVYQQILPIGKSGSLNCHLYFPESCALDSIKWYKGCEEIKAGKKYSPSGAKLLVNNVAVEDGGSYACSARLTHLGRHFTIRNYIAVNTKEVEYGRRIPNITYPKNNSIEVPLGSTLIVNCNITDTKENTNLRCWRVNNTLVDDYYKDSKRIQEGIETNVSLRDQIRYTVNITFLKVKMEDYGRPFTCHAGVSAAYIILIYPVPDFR

T3: human IL-1R1 (human, UniProt P14778 18-336, limits assumed)
T3 construct: also called IL-1RI
T3 sequence (looked up): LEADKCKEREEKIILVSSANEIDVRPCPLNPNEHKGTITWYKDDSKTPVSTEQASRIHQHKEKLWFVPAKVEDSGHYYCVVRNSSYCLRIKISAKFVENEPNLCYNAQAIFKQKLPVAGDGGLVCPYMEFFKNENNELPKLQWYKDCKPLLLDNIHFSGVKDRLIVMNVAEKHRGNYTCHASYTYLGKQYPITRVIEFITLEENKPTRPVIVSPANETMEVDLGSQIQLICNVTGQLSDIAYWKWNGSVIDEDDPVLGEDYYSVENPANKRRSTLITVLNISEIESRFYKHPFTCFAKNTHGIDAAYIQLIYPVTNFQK

B1: chimeric antibody C33D10 (antibody, V domains shown)
VH: QVQLQQSGTELLKPGASVKLSCKASGNTVTSYWMHWVKQRPGQGLEWIGEILPSTGRTNYNENFKGKAMLTVDKSSSTAYMQLSSLASEDSAVYYCTIVYFGNPWFAYWGQGTLVTVSA
VL: QIVLTQSPAIMSASLGERVTMTCTASSSVSSSYLHWYQKKPGSSPKLWVYSTSNLASGVPVRFSGSGSGTSYSLTISSMEAEDAATYYCHQHHRSPVTFGSGTKLEMK
notes: Mouse variable domains of 33D10 on human constant domains (hu IgG1KO/kappa); also called chimeric 33D10
B2: chimeric antibody C81B4 (antibody, V domains shown)
VH: QVQLQQPGADFVRPGASMRLSCKASGYSFTSSWIHWVKQRPGQGLEWIGEINPGNVRTNYNENFRNKATLTVDKSSTTAYMQLRSLTSADSAVYYCTVVFYGEPYFPYWGQGTLVTVSA
VL: B1 VL with L34F, K39Q, V49I, S51R, V61G, H92F, V97L, S101A, M107L
notes: Mouse variable domains of 81B4 on human constant domains (hu IgG1KO/kappa); also called chimeric 81B4
B3: chimeric antibody C73C5 (antibody, V domains shown)
VH: QVQLKESGPGLVAPSQSLSITCTVSGFSLTNYAVHWVRQFPGKGLEWLGVIWSDGSTDFNAPFKSRLSINKDNSKSQVFFKMNSLQIDDTAIYYCARKGGYSGSWFAYWGQGTLVTVSA
VL: DIVMTQSQKFLSTSVGVRVSVTCKASQDVGTNVLWYQQKIGQSPKPLIYSASYRHSGVPDRFTGSGSGTDFTLIISNVQSEDLAEYFCQQYSRYPLTFGPGTKLELK
notes: Mouse variable domains of 73C5 on human constant domains (hu IgG1KO/kappa); also called chimeric 73C5
B4: chimeric antibody C81A1 (antibody, V domains shown)
VH: QVQLKESGPGLVAPSQSLFITCTVSGFSLSSYEINWVRQVPGKGLEWLGVIWTGITTNYNSALISRLSISKDNSKSLVFLKMNSLQTDDTAIYYCARGTGTGFYYAMDYWGQGTSVTVSS
VL: DIQMTQTTSSLSASLGDRVTISCRASQDIYKYLNWYQQKPDGTLKLLIYYTSGLHSGVPSRFSGSGSGTDFSLTISNLEPEDIATYFCQQDSKFPWTFGGDTKLEIK
notes: Mouse variable domains of 81A1 on human constant domains (hu IgG1KO/kappa); also called chimeric 81A1
B5: chimeric antibody of 78C8 (antibody, V domains shown)
VH: QVQLKESGPVLVAPSQSLSITCTVSGFSLTKFGVHWIRQTPGKGLEWLGVIWAGGPTNYNSALMSRLTISKDISQSQVFLRIDSLQTDDTAMYYCAKQIYYSTLVDYWGQGTSVTVSS
VL: DVLLTQTPLSLPVSLGDQASISCRSSQNIVHSNGNTYLQWYLQKPGQSPKLLIYKVSNRFSGVPDRFSGSGSGTDFTLKISRVEAEDLGVYYCFQGSHVPFTFGAGTKLELK
notes: No own label printed; also called chimeric 78C8
B6: chimeric antibody of 76E10 (antibody, V domains shown)
VH: QVQLKESGPVLVAPSQSLSITCTVSGFSLTNYGVHWVRQPPGKGLEWLGVIWPVGSTNYNSALMSRLSIHKDNSKSQVFLRMNSLQTDDTAIYYCAKMDWDDFFDYWGQGTTLTVSS
VL: DIVMTQSQKFMSATVGGRVNITCKASQNVGRAVAWYQQKPGQSPKLLTHSASNRYTGVPDRFTGSGSGTDFTLTITNMQSEDLADYFCQQYSSYPLTFGAGTKLDLK
notes: No own label printed; also called chimeric 76E10
B7: chimeric antibody of 172C8 (antibody, V domains shown)
VH: EVQLQQSGPELVKPGASVKLSCKASGYTFTDNYMNWVRQSHGKSLEWIGRVNPSNGDTKYNQNFKGKATLTVDKSLSTAYMQLNGLTSEDSAVYYCGRTKNFYSSYSYDDAMDYWGQGTSVTVSS
VL: DIQMTQSPASQSASLGESVTFTCLASQTIGTWLAWYQQRPGKSPQLLIYAATSLADGVPSRFSGSGSGTQFSFNIRSLQAEDFASYYCQQVYTTPLTFGGGTKLEIK
notes: No own label printed; also called chimeric 172C8
B8: chimeric antibody of 67E7 (antibody, V domains shown)
VH: EVQLQQSGAEFVRPGASVKFSCTASGFNIKDDYIHWVRQRPEQGLEWVGRIDPANGNTKYAPKFQDKATITADTSSNTAYLQLSSLTSEDTAVYYCAKSFPNNYYSYDDAFAYWGQGTLVTVSA
VL: DIQMTQSPASQSASLGESVTFTCLASQTIGTWLGWYQQKPGKSPQLLIYRSTTLADGVPSRFSGSGSGTKFSFKISSLQAADFASYYCQQLYSAPYTFGGGTKLEIR
notes: No own label printed; also called chimeric 67E7
B9: chimeric antibody of 89A12 (antibody, V domains shown)
VH: B8 VH with F11L, K19R, F20L, E42K, V48L, A61D, K63R, Q82H, N102D
VL: B8 VL with T22S, S51A, T53S, K70N, A81E, F83L, A94G
notes: No own label printed; also called chimeric 89A12
B10: chimeric antibody of 73F6 (antibody, V domains shown)
VH: B3 VH with F59Y, I87T
VL: B3 VL with P46A, S76T
notes: No own label printed; also called chimeric 73F6

Numbering of substitutions follows the chain as printed.

The target in one test is T1, human IL-36R on cells. Briefly: cell-based or functional assay.
On to B1, for which the “IC90, IL-8 release, NCI/ADR-RES cells, trun-IL-36a” value amounted to 400 pM; the “IC90, IL-8 release, NCI/ADR-RES cells, trun-IL-36b” value turned out to be 300 pM; the “IC90, IL-8 release, NCI/ADR-RES cells, trun-IL-36g” value is 200 pM; the “IC90, pNFκB, NCI/ADR-RES cells, trun-IL-36a” value was 1.9 nM. Besides, the “IC90, pNFκB, NCI/ADR-RES cells, trun-IL-36b” value is 2 nM and the “IC90, pNFκB, NCI/ADR-RES cells, trun-IL-36g” value is 1.3 nM.
Turning to B2, the “IC90, IL-8 release, NCI/ADR-RES cells, trun-IL-36a” value amounted to 400 pM; the “IC90, IL-8 release, NCI/ADR-RES cells, trun-IL-36b” value was 100 pM; the “IC90, IL-8 release, NCI/ADR-RES cells, trun-IL-36g” value turned out to be 100 pM; the “IC90, pNFκB, NCI/ADR-RES cells, trun-IL-36a” value is 1.3 nM. Also, the “IC90, pNFκB, NCI/ADR-RES cells, trun-IL-36b” value is 0.9 nM and the “IC90, pNFκB, NCI/ADR-RES cells, trun-IL-36g” value turned out to be 0.4 nM.
With B3, the “IC90, IL-8 release, NCI/ADR-RES cells, trun-IL-36a” value is 700 pM; the “IC90, IL-8 release, NCI/ADR-RES cells, trun-IL-36b” value came out at 400 pM; the “IC90, IL-8 release, NCI/ADR-RES cells, trun-IL-36g” value turned out to be 400 pM; the “IC90, pNFκB, NCI/ADR-RES cells, trun-IL-36a” value came out at 2.1 nM. In addition, the “IC90, pNFκB, NCI/ADR-RES cells, trun-IL-36b” value was 0.9 nM and the “IC90, pNFκB, NCI/ADR-RES cells, trun-IL-36g” value was 1.8 nM.

Another test addresses T1, human IL-36R on cells. Briefly: cell-based or functional assay. The source holds these as a separate data set.
On to B4, for which the “IC90, IL-8 release, human primary keratinocytes (NHK), trun-IL-36a” value was found to be 23400 pM; the “IC90, IL-8 release, human primary keratinocytes (NHK), trun-IL-36b” value turned out to be 87000 pM; the “IC90, IL-8 release, human primary keratinocytes (NHK), trun-IL-36g” value stood at 1200 pM; the “IC90, pNFκB, human primary keratinocytes (NHK), trun-IL-36b” value was 7.1 nM.
Consider B2, for which the “IC90, IL-8 release, human primary keratinocytes (NHK), trun-IL-36a” value is 1200 pM; the “IC90, IL-8 release, human primary keratinocytes (NHK), trun-IL-36b” value turned out to be 11100 pM; the “IC90, IL-8 release, human primary keratinocytes (NHK), trun-IL-36g” value was 300 pM; the “IC90, pNFκB, human primary keratinocytes (NHK), trun-IL-36b” value worked out at 1.8 nM.
On the same counts, the results for B3 are 29700 pM, 49300 pM, 3600 pM and 8.3 nM.

The next test has as its target T2, mouse IL-36R. Briefly: BLI (Fortebio Octet), antibody injected over antigen surface. The protocol:
(§1) B) Molecular selectivity over mouse IL-36R and human IL-1R1 The mouse and chimeric anti-IL-36R antibodies were also injected over either a mouse IL-36R or a human IL-1R1 surface at a concentration of 100 nM. The binding signal to mouse IL-36R and to human IL-1R1 for these antibodies measured using the Fortebio Octet (Fortebio, Menlo Park, Calif.) is zero, which indicates these antibodies selectively bind to human IL-36R.
On the technique in general: BLI is a label-free optical method that tracks binding on a fibre tip over time.
In the case of B5, the binding result is on record as “no binding (tested: 100 nM)”.
The same measure, in the same setting: under B6 stands “no binding (tested: 100 nM)”.
Still for that read-out and setting: under B4 stands “no binding (tested: 100 nM)”; under B7, “no binding (tested: 100 nM)”.
On the same count and under the same terms, with B1 the entry was “no binding (tested: 100 nM)”.
On to B2, for which the binding result is listed as “no binding (tested: 100 nM)”.
The same measure, in the same setting: under B8 stands “no binding (tested: 100 nM)”; under B9, “no binding (tested: 100 nM)”.
On the same count and under the same terms, under B3 stands “no binding (tested: 100 nM)”; under B10, “no binding (tested: 100 nM)”.

A further test addresses T3, human IL-1R1. The description is as above. The protocol: as §1
Take B5: the binding result was “no binding (tested: 100 nM)”.
In the case of B6, the binding result was “no binding (tested: 100 nM)”.
Still for that read-out and setting: under B4 stands “no binding (tested: 100 nM)”; under B7, “no binding (tested: 100 nM)”.
As for B1, the binding result is recorded as “no binding (tested: 100 nM)”.
The same measure, in the same setting: under B2 stands “no binding (tested: 100 nM)”.
On the same count and under the same terms, with B8 the entry was “no binding (tested: 100 nM)”; with B9, “no binding (tested: 100 nM)”; with B3, “no binding (tested: 100 nM)”.
Same read-out and setting: under B10 stands “no binding (tested: 100 nM)”.
